Measurements from US20230125550A1 (ARCELLX, published 2023).

B1: SEQ ID NO: 389 (designed binder)
chain: MGSWWEFIWRLEAIEQRLWALGGSEAELAAFEKEIAAFESELQAYKGKGNPEVEVLRSRAADIRTDLQAYRHN
notes: D domain, on phage
B2: SEQ ID NO: 374 (designed binder)
chain: MGSWEEFFTRLDAINERLEALGGSEAELAAFEKEIAAFESELQAYKGKGNPEVEMLRYEAAEIRHMLQAYRHN
notes: D domain, on phage
B3: SEQ ID NO: 365 (designed binder)
chain: MGSWHEFDQRLWAIEERLWALGGSEAELAAFEKEIAAFESELQAYKGKGNPEVETLRLYAALIRHDLQAYRHN
notes: D domain, on phage
B4: SEQ ID NO: 335 (designed binder)
chain: MGSWDEFYYRLEAIEMRLGALGGSEAELAAFEKEIAAFESELQAYKGKGNPEVEELRHYAAQIRHMLQAYRHN
notes: D domain, on phage
B5: SEQ ID NO: 336 (designed binder)
chain: MGSWEEFYDRLEAIYNRLGALGGSEAELAAFEKEIAAFESELQAYKGKGNPEVEVLREYAADIREMLQAYRHN
notes: D domain, on phage
B6: SEQ ID NO: 425 (designed binder)
chain: MGSWYEFSMRLDAIYDRLMALGGSEAELAAFEKEIAAFESELQAYKGKGNPEVEQLRGYAANIRNELQAYRHN
notes: D domain, on phage
B7: SEQ ID NO: 401 (designed binder)
chain: MGSWQEFTMRLDAIYNRLETLGGSEAELAAFEKEIAAFESELQAYKGKGNPEVEWLRQSAANIRSELQAYRHN
notes: D domain, on phage
B8: SEQ ID NO: 427 (designed binder)
chain: MGSWIEFEVRLDAIYNRLAALGGSEAELAAFEKEIAAFESELQAYKGKGNPEVERLRRYAANIRHELQAYRHN
notes: D domain, on phage
B9: SEQ ID NO: 426 (designed binder)
chain: MGSWVEFIYRLDAIYDRLEALGGSEAELAAFEKEIAAFESELQAYKGKGNPEVEVLRRYAANIRNELQAYRHN
notes: D domain, on phage
B10: SEQ ID NO: 431 (designed binder)
chain: MGSWSEFYLRLDAIYDRLDALGGSEAELAAFEKEIAAFESELQAYKGKGNPEVEWLRKTAANIREELQAYRHN
notes: D domain, on phage
B11: SEQ ID NO: 429 (designed binder)
chain: MGSWFEFYMRLDAIYDRLTALGGSEAELAAFEKEIAAFESELQAYKGKGNPEVERLRTFAANIRKELQAYRHN
notes: D domain, on phage
B12: SEQ ID NO: 428 (designed binder)
chain: MGSWFEFYDRLDAIYMRLIALGGSEAELAAFEKEIAAFESELQAYKGKGNPEVEVLRRYAANIRAELQAYRHN
notes: D domain, on phage
B13: SEQ ID NO: 430 (designed binder)
chain: MGSWYEFDYRLDAIYDRLAALGGSEAELAAFEKEIAAFESELQAYKGKGNPEVERLRKWAANIREELQAYRHN
notes: D domain, on phage
B14: SEQ ID NO: 327 (designed binder)
chain: MGSWTEFVWRLEAIWDRLDALGGSEAELAAFEKEIAAFESELQAYKGKGNPEVEVLREDAAVIRHFLQAYRHN
notes: D domain, on phage
B15: SEQ ID NO: 333 (designed binder)
chain: MGSWEEFAQRLYAIEWRLYALGGSEAELAAFEKEIAAFESELQAYKGKGNPEVEVLRYVAAQIRYHLQAYRHN
notes: D domain, on phage
B16: SEQ ID NO: 352 (designed binder)
chain: MGSWDEFGRRLYAIEWRLYALGGSEAELAAFEKEIAAFESELQAYKGKGNPEVEKLREIAAVIRSNLQAYRHN
notes: D domain, on phage
B17: SEQ ID NO: 361 (designed binder)
chain: MGSWDEFEQRLIAIEERLFALGGSEAELAAFEKEIAAFESELQAYKGKGNPEVEWLREEAAVIRKYLQAYRHN
notes: D domain, on phage
B18: SEQ ID NO: 398 (designed binder)
chain: MGSWSEFEHRLEAIESRLFALGGSEAELAAFEKEIAAFESELQAYKGKGNPEVEDLRSEAAWIREQLQAYRHN
notes: D domain, on phage
B19: SEQ ID NO: 393 (designed binder)
chain: MGSWWEFEERLWAIDYRLHALGGSEAELAAFEKEIAAFESELQAYKGKGNPEVEMLRSWAAEIRALLQAYRHN
notes: D domain, on phage
B20: SEQ ID NO: 362 (designed binder)
chain: MGSWVEFDQRLGAIWDRLVALGGSEAELAAFEKEIAAFESELQAYKGKGNPEVEHLRQGAAVIRDDLQAYRHN
notes: D domain, on phage
B21: SEQ ID NO: 366 (designed binder)
chain: MGSWVEFWDRLDAIEGRLWALGGSEAELAAFEKEIAAFESELQAYKGKGNPEVEDLRWLAAEIRADLQAYRHN
notes: D domain, on phage
B22: SEQ ID NO: 399 (designed binder)
chain: MGSWFEFWERLDAIEWRLWALGGSEAELAAFEKEIAAFESELQAYKGKGNPEVEELRSTAADIRRYLQAYRHN
notes: D domain, on phage
B23: SEQ ID NO: 376 (designed binder)
chain: MGSWYEFWGRLDAIEERLWALGGSEAELAAFEKEIAAFESELQAYKGRGNPEVEMLREDAAEIRGQLQAYRHN
notes: D domain, on phage
B24: SEQ ID NO: 400 (designed binder)
chain: MGSWFEFWGRLEAIESRLKALGGSEAELAAFEKEIAAFESELQAYKGKGNPEVEELREHAAWIRAYLQAYRHN
notes: D domain, on phage
B25: SEQ ID NO: 387 (designed binder)
chain: MGSWLEFMWRLDAIDERLWALGGSEAELAAFEKEIAAFESELQAYKGKGNPEVELLREMAAAIRDDLQAYRHN
notes: D domain, on phage
B26: SEQ ID NO: 373 (designed binder)
chain: MGSWFEFNYRLGAIEDRLWALGGSEAELAAFEKEIAAFESELQAYKGKGNPEVEMLRQIAAEIREFLQAYRHN
notes: D domain, on phage
B27: SEQ ID NO: 377 (designed binder)
chain: MGSWVEFWDRLWAIDYRLFALGGSEAELAAFEKEIAAFESELQAYKGKGNPEVEALRDEAAWIREELQAYRHN
notes: D domain, on phage
B28: SEQ ID NO: 432 (designed binder)
chain: MGSWFEFYERLDAINWRLFALGGSEAELAAFEKEIAAFESELQAYKGKGNPEVEALRGEAAAIREDLQAYRHN
notes: D domain, on phage
B29: SEQ ID NO: 391 (designed binder)
chain: MGSWSEFEDRLWAIDQRLFALGGSEAELAAFEKEIAAFESELQAYKGKGNPEVEWLRAYAADIRWELQAYRHN
notes: D domain, on phage
B30: SEQ ID NO: 392 (designed binder)
chain: MGSWTEFWERLNAIDERLFALGGSEAELAAFEKEIAAFESELQAYKGKGNPEVEWLRLYAAEIRSELQAYRHN
notes: D domain, on phage
B31: SEQ ID NO: 384 (designed binder)
chain: MGSWDEFEERLFAIDERLWALGGSEAELAAFEKEIAAFESELQAYKGKGNPEVEALRYLAADIREELQAYRHN
notes: D domain, on phage
B32: SEQ ID NO: 394 (designed binder)
chain: MGSWWEFENRLWAIEERLEALGGSEAELAAFEKEIAAFESELQAYKGKGNPEVEMLRNYAAEIRWELQAYRHN
notes: D domain, on phage
B33: SEQ ID NO: 390 (designed binder)
chain: MGSWSEFYDRLWAIEERLFALGGSEAELAAFEKEIAAFESELQAYKGKGNPEVEYLRYYAAEIREELQAYRHN
notes: D domain, on phage
B34: SEQ ID NO: 378 (designed binder)
chain: MGSWVEFVDRLWAIDERLDALGGSEAELAAFEKEIAAFESELQAYKGKGNPEVEFLRTWAAWIREDLQAYRHN
notes: D domain, on phage
B35: SEQ ID NO: 395 (designed binder)
chain: MGSWVEFEERLWAIDERLGALGGSEAELAAFEKEIAAFESELQAYKGKGNPEVEWLRDWAADIRWWLQAYRHN
notes: D domain, on phage
B36: SEQ ID NO: 396 (designed binder)
chain: MGSWVEFEERLEAIEERLFALGGSEAELAAFEKEIAAFESELQAYKGKGNPEVEWLRDDAANIRHWLQAYRHN
notes: D domain, on phage
B37: SEQ ID NO: 375 (designed binder)
chain: MGSWYEFSNRLDAIGERLWALGGSEAELAAFEKEIAAFESELQAYKGKGNPEVEILRHQAAEIRWFLQAYRHN
notes: D domain, on phage
B38: SEQ ID NO: 385 (designed binder)
chain: MGSWEEFWERLDAIDTRLWALGGSEAELAAFEKEIAAFESELQAYKGKGNPEVEVLRNDAADIREPLQAYRHN
notes: D domain, on phage
B39: SEQ ID NO: 388 (designed binder)
chain: MGSWTEFYNRLDAIDQRLWALGGSEAELAAFEKEIAAFESELQAYKGKGNPEVEMLREYAADIRTDLQAYRHN
notes: D domain, on phage
B40: SEQ ID NO: 386 (designed binder)
chain: MGSWMEFWERLEAIDMRLWALGGSEAELAAFEKEIAAFESELQAYKGKGNPEVEYLRDDAAVIRDDLQAYRHN
notes: D domain, on phage
B41: SEQ ID NO: 334 (designed binder)
chain: MGSWDEFAWRLDVIFARLGALGGSEAELAAFEKEIAAFESELQAYKGKGNPEVEELRKNAAQIRDGLQAYRHN
notes: D domain, on phage

What follows are binders tested against T1, recombinant human CD123-Fc (human, UniProt P26951 19-305) (assay: phage ELISA, captured CD123-Fc).
T1 construct: not shown: Fc part of CD123-Fc
T1 sequence: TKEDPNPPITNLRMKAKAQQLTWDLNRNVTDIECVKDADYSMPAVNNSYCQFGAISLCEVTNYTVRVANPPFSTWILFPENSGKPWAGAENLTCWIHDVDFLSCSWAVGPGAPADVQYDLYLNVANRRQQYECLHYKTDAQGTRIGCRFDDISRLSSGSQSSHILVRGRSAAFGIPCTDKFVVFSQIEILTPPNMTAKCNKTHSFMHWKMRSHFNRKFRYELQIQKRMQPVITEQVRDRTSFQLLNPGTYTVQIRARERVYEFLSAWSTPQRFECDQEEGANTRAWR
Protocol: Individual colonies containing phagemid from BCMA panning output were picked and phage were rescued in 96-well format using VCSM13 helper phage following standard protocols. To assay target binding by ELISA, 96-well plates were coated with 1.3 microg/ml goat anti-human IgG1-Fc antibody followed by incubation with 5 nM of recombinant human target (BCMA-Fc, CD123-Fc, AFP, or AFP123) or IgG1-Fc. 50 microl of rescued phage diluted 5× in ELISA blocking buffer was then added to each well. Binding was detected using an HRP-conjugated anti-M13 antibody and the ELISA ratio for each sequence is reported as the absorbance at 450 nm for target (i.e., BCMA-Fc, CD123-Fc, AFP, or AFP123) divided by that for IgG1-Fc averaged across all screened wells containing that clone.
With B1 the ELISA_avg was 4 ratio A450 target/IgG1-Fc. Binder B2 has an ELISA_avg of 3.9 ratio A450 target/IgG1-Fc. With B3 the ELISA_avg was 3.3 ratio A450 target/IgG1-Fc. For B4, the ELISA_avg was 7.2 ratio A450 target/IgG1-Fc. B5 gave an ELISA_avg of 18.6 ratio A450 target/IgG1-Fc. For B6, the ELISA_avg was 13 ratio A450 target/IgG1-Fc. For B7, the ELISA_avg was 13.7 ratio A450 target/IgG1-Fc. Binder B8 has an ELISA_avg of 20.8 ratio A450 target/IgG1-Fc. B9 gave an ELISA_avg of 17 ratio A450 target/IgG1-Fc. With B10 the ELISA_avg was 15.7 ratio A450 target/IgG1-Fc. B11 gave an ELISA_avg of 13.1 ratio A450 target/IgG1-Fc. In the case of B12, the ELISA_avg is reported as 13.6 ratio A450 target/IgG1-Fc. Work on B13 yielded an ELISA_avg of 24.9 ratio A450 target/IgG1-Fc. B14 gave an ELISA_avg of 3.6 ratio A450 target/IgG1-Fc. Binder B15 has an ELISA_avg of 16.9 ratio A450 target/IgG1-Fc. With B16 the ELISA_avg was 5.8 ratio A450 target/IgG1-Fc. With B17 the ELISA_avg was 5.9 ratio A450 target/IgG1-Fc. B18 was tested, and the ELISA_avg was 7.6 ratio A450 target/IgG1-Fc. In the case of B19, the ELISA_avg is reported as 4.1 ratio A450 target/IgG1-Fc. Binder B20 has an ELISA_avg of 5.3 ratio A450 target/IgG1-Fc. B21 showed an ELISA_avg of 3.5 ratio A450 target/IgG1-Fc. Work on B22 yielded an ELISA_avg of 3.4 ratio A450 target/IgG1-Fc. In the case of B23, the ELISA_avg is reported as 5.4 ratio A450 target/IgG1-Fc. With B24 the ELISA_avg was 4.9 ratio A450 target/IgG1-Fc. Work on B25 yielded an ELISA_avg of 5.1 ratio A450 target/IgG1-Fc. B26 was tested, and the ELISA_avg was 6.9 ratio A450 target/IgG1-Fc. In the case of B27, the ELISA_avg is reported as 3.6 ratio A450 target/IgG1-Fc. In the case of B28, the ELISA_avg is reported as 3 ratio A450 target/IgG1-Fc. With B29 the ELISA_avg was 4.2 ratio A450 target/IgG1-Fc. Binder B30 has an ELISA_avg of 4 ratio A450 target/IgG1-Fc. Work on B31 yielded an ELISA_avg of 5 ratio A450 target/IgG1-Fc. With B32 the ELISA_avg was 5.6 ratio A450 target/IgG1-Fc. B33 gave an ELISA_avg of 17 ratio A450 target/IgG1-Fc. B34 gave an ELISA_avg of 3.2 ratio A450 target/IgG1-Fc. Binder B35 has an ELISA_avg of 4.1 ratio A450 target/IgG1-Fc. B36 gave an ELISA_avg of 3.8 ratio A450 target/IgG1-Fc. Binder B37 has an ELISA_avg of 3.9 ratio A450 target/IgG1-Fc. B38 showed an ELISA_avg of 6.8 ratio A450 target/IgG1-Fc. B39 showed an ELISA_avg of 3.3 ratio A450 target/IgG1-Fc. With B40 the ELISA_avg was 4.2 ratio A450 target/IgG1-Fc. Work on B41 yielded an ELISA_avg of 4.6 ratio A450 target/IgG1-Fc.
